Consider one molecule from patent US20250302761A1 (INSTITUT NATIONAL DE LA SANT ET DE LA RECHERCHE M DICALE, published 2025).

In this assay the target is FKBP2-RFP-CD63. As to the kind of experiment: cell-based or functional assay.

B1: FRB-NanoLuciferase-HA (other)
chain: ILWHEMWHEGLEEASRLYFGERNVKGMFEVLEPLHAMMERGPQTLKETSFNQAYGRDLMEAQEWCRKYMKSGNVKDLLQAWDLYYHVFRRISK
With B1, the “EV NLuc specific activity, normalized on the 'No Drug' condition” value was determined as 3.5 fold and the “NLuc activity in Fraction 7 of the floatation assay, 'Drug' against 'No Drug'” value worked out at 4 fold.
